Test results from the supplement of paper PMC9170038.

Test system: MS2 coat protein
Assay: apparent KD of MS2 coat protein; designed switch direction (-1 OFF switch, 1 ON switch): -1; higher = weaker reporter binding
Method in brief: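 Normalised cluster fluorescence was curve-fitted, and each design's median over clusters is its apparent KD. Before this, SNAP-549-labelled MS2 coat protein was titrated from 0.7 or 1.5 nM, doubling to 3 µM, over RNA switches transcribed on Illumina chips by stalled E. coli RNA polymerase. Titrations had no input, 200 uM small-molecule ligand, or an oligonucleotide input, and steps lasted 0.8–1.5 h (lowest) to 10–20 min (highest).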

[1] = input ligand: microRNA oligo, concentration not stated
[2] = Eterna round: R95, input ligand: FMN 200 uM
[3] = Eterna round: R95, input ligand: microRNA oligo, concentration not stated
[4] = Eterna round: R95, input ligand: none

| Sequence | apparent KD of MS2 coat protein (input ligand: FMN 200 uM) [nM] | apparent KD of MS2 coat protein [1] [nM] | apparent KD of MS2 coat protein (input ligand: none) [nM] | apparent KD of MS2 coat protein [2] [nM] | apparent KD of MS2 coat protein [3] [nM] | apparent KD of MS2 coat protein [4] [nM] |
| --- | --- | --- | --- | --- | --- | --- |
| GGAAACCUACCGCGACAUGAGGAUCACCCAUGUGAUUGGUUUUAGGAUAUCUGGAGAAUCCAGACAGAGAAGGAGGGCCGUCGC [Eternabot solution 38] (Eterna round: R96, puzzle: Exclusion NG 3) | 77.5 | 28.5 | 45.1 | – | – | – |
| GAGUAGGUAGGAUAUACGAUAAUAUAGGGUAGAUAUAUAACACAUGAGGAUCACCCAUGUAGAAGGACCAUGAG [Mat - Exclusion 2 - Mod of my Tesla design - D62] (puzzle: Exclusion 2) | – | – | – | 118 | 37.1 | 35.1 |
| ACGUGAUAUCUGUCGUUGGACAUGAGGAUCACCCAUGUAAGCUUUUUGCUCGUCUUAUAACCCGGUGACAGACCUUC [Dienlave] (puzzle: Sensor v3, turn-off variant 1) | – | – | – | 24.7 | 236 | 23.9 |
| UAUUAGCAAGUAAGGUCCCACAUGAGGAUCACCCAUGUGCUCGUCUCCUCAGGUACGGAGUGGAAACUCCCGAUAUG [Sensor-V1 #93] (Eterna round: R97, puzzle: Sensor, turn-off variant 1) | 84.7 | – | 76 | – | – | – |
| UAAAUUGGGUAGGAUAUGUUUGUUUAAAGAGCCACAGAAGGACCCACAUGAGGAUCACCCAUGUAUCACCUAUG [Eternabot (L2) Solution 60] (Eterna round: R97, puzzle: Exclusion 6) | 33.6 | – | 27.1 | – | – | – |
| UGAUCUUUUGUUAGGAUAUGCUGGGUUUUUUCUCAGCAGAAGGGACAUGAGGAUCACCCAUGUUUUGUCAUAAA [Magic-07] (puzzle: Brourd's mod of Exclusion 4) | – | – | – | – | 20.3 | – |
| CUGAGCAGACGGAGAUCCAACAUGAGGAUCACCCAUGUCUCAAAAGCUUCUUGCUCGUCUUAUCCUCCUCUGUUCUC [Maeronqu] (puzzle: Sensor v3, turn-off variant 1) | – | – | – | 36.8 | 215 | 33.1 |
| UUUGACUAAGGAUAUCCUUUUGACCACAUGAGGAUCACCCAUGUAUUCCACAAGUGCGAAGGAGAAGGUGGGAAGG [Eternabot (L2) Solution 28] (Eterna round: R97, puzzle: Exclusion 5) | 65.6 | – | 56.1 | – | – | – |
| AAAAUGUCAGGAUAUACGAAACAAAACAAAACAAAACAAAAGUAGAAGGGACAUGAGGAUCACCCAUGUAAGAA [Exclusion 4 #2] (puzzle: Exclusion 4) | – | – | – | 49.6 | 24.1 | 32.5 |
| AGUAACAGAGGAUAUACUAUUUUAUGUGUUUAUUGUUUUAAACAUGAGGAUCACCCAUGUAGAAGGCUGAAUAA [JMF 86] (puzzle: Exclusion 2) | – | – | – | – | 28.4 | – |
| CCGCUCCGUGUAGGAUAUCGCUGUACCCUGCGGCGAGAAGGACAUGAGGAUCACCCAUGUAUGUUAUUAUCACGCGUGGCGCAC [Design 72] (Eterna round: R96, puzzle: Exclusion NG 1) | 16 | 12.4 | 16.4 | – | – | – |
| GAGUGCUGAGGAUAUACAUGAGGAUCACCCAUGUACUUCAGCUAGGAGACUAGCAUUGGUAGAAGGCAGUACUC [Mod of lroppy 22 - Jieux - Exclusion 3] (Eterna round: R97, puzzle: Exclusion 3) | 20.7 | – | 14.2 | – | – | – |
| AGCGAGGCAGGAUAUACAUGAGGAUCACCCAUGUACUUGUAUGGCGUGGAACAUCGUGGUAGAAGGGCCGUGCU [EX3 #81] (Eterna round: R97, puzzle: Exclusion 3) | 101 | – | 355 | – | – | – |
| GUGUAACAUGAGGAUCACCCAUGUCAGGAUAUCCGCUUUAACUAAAUAAAUAAAUAGUGGAGAAGGGACAGCGC [-13.9, -13.37 kcal, 36% A] (Eterna round: R97, puzzle: Exclusion 1) | 55.7 | – | 46.8 | – | – | – |
| GCGCACCUACCAAAAGGUAGGCCGACAUGAGGAUCACCCAUGUAGGAUAUCGAUUGCUUUGCAGUCGAGAAGGACGUGAUGCGC [JL ENG3 3.80 Mod 18] (Eterna round: R96, puzzle: Exclusion NG 3) | 20.1 | 14.7 | 19.4 | – | – | – |
| AUCGUGCAGCAAAGCUGUACGAGUACAUGAGGAUCACCCAUGUAGGAUAUGGUACGCUUUGCGUGCUAGAAGGAUAUGUGUAGG [Mat - Exclusion NG 3 - Mod of JL - D83] (Eterna round: R96, puzzle: Exclusion NG 3) | 35.7 | 31 | 35.7 | – | – | – |
| AAAUGACAUUAGGAUAUAUAACGCGGCUGCCGCAUAGAAGGGAUGACUUGAGGAUCACCCAAGUGACCCAAGGA [Arcere] (Eterna round: R97, puzzle: Exclusion 6) | 28.2 | – | 30.8 | – | – | – |

| Sequence | apparent KD of MS2 coat protein (input ligand: FMN 200 uM) [nM] | apparent KD of MS2 coat protein [1] [nM] | apparent KD of MS2 coat protein (input ligand: none) [nM] | apparent KD of MS2 coat protein [2] [nM] | apparent KD of MS2 coat protein [3] [nM] | apparent KD of MS2 coat protein [4] [nM] |
| --- | --- | --- | --- | --- | --- | --- |
| CGUGUACGAGGAUAUAGAUUGGAUGACAUGAGGAUCACCCAUGUGAUCAAUCUAUUUGGUUUAGAAGGUGUACAUG [JR_Ex5_Sub050] (Eterna round: R97, puzzle: Exclusion 5) | 14.1 | – | 14.8 | – | – | – |
| GGGUGACAUGAGGAUCACCCAUGUGAGGAUAUCUGGAUACUCUUUAUUUUAGAUAUCCAGAGAAGGCACACCCU [Ex1-3: 6Z] (puzzle: Exclusion 1) | – | – | – | – | 356 | – |
| GUAAACGAAGAGGAUAUUUGAUAUCAAAGCUUCAAAGAAGGCUUCACAUGAGGAUCACCCAUGUGAUCUUCAAG [Mat - Exclusion 6 - JL Mod - D17] (Eterna round: R97, puzzle: Exclusion 6) | 404 | – | 28.4 | – | – | – |
| ACAGUACAUGAGGAUCACCCAUGUGAGGAUAUAGUAGUAUGGGAGACCAUACUAAAGACUAGAAGGCGCGGGCA [Exclusion 1 S1] (Eterna round: R97, puzzle: Exclusion 1) | 43.6 | – | 67 | – | – | – |
| CCGAGGUAGCGGUCCUAUGACAUGAGGAUCACCCAUGUACCUCGCUACGAGCUUUUUGCUCGUCAUAUAAUUCUCGG [Mat - Sensor v3 - turn-off var 1 - JL Mod - D30] (Eterna round: R96, puzzle: Sensor v3, turn-off variant 1) | 56.8 | 49.7 | 61.3 | – | – | – |
| ACGUACUGAGGAUAUACGAACAUGUCAAAAGACGUGAAGGGACAUGAGGAUCACCCAUGUAGAAGGCAGUACGA [Mat - Exclusion 2 - JL mod - D7] (Eterna round: R96, puzzle: Exclusion 2) | – | 32.7 | – | – | – | – |
| AUAUUACAUGAGGAUCACCCAUGUGAGGAUAUGGAGCGAGACUGUCCUGUCGCGUACACCAGAAGGCGCGGGCG [1st #53] (Eterna round: R97, puzzle: Exclusion 1) | 27.5 | – | 31 | – | – | – |
| UUAAAUCAUGUAGGAUAUGCGUGGCGAAGCUAUGCAGAAGGACAUGAGGAUCACCCAUGUUCUAGCGUCUGAGUACAGAUGCAA [Mat - Exclusion NG 1 - Mod of JL - D2] (Eterna round: R96, puzzle: Exclusion NG 1) | 244 | 17.4 | 18.9 | – | – | – |
| GUGCCGCGAGGAUAUACAGACGGGUCCAGUACGUGUCUUGGACUUGAGGAUCACCCAAGUAGAAGGCGUCUCAG [salish99_ex2_r4_612] (Eterna round: R97, puzzle: Exclusion 2) | 37.6 | – | 48.9 | – | – | – |
| GUACGAGCCAAACACGUGGACAUGAGGAUCACCCAUGUGUCACCGGAUCCAUAGAGCUCGUCUUACCGACAAAAGCU [Eternabot (Original) Solution 17] (Eterna round: R97, puzzle: Sensor, turn-off variant 1) | 28.9 | – | 31.6 | – | – | – |
| UCACGGGAUUGAGGAUAUAUAUUAAUUUUUACAAUAGAAGGCAAAUUUUUAGUUUUUUCACUUUACAUGAGGAUCACCCAUGUU [JR_ExcBG1_Sub081] (Eterna round: R96, puzzle: Exclusion NG 1) | – | 20.5 | – | – | – | – |
| ACAUGAGGAUCACCCAUGUACAGGGUUUAGUUUCAUCGUUUGAAGGAUAUACUCCGUUAGUUGUCGUAGAAGGUCACAUUUUGG [JR_ExcNG3_Sub006] (Eterna round: R96, puzzle: Exclusion NG 3) | 189 | 120 | 145 | – | – | – |
| ACAAGCUCUUUGCAACUUAGUUUUGUUGCUUCGUAGGUAACAUGAGGAUCACCCAUGUAAGACUGAUGUCGUCUUAU [JR_SV3TOV2_Sub086] (Eterna round: R96, puzzle: Sensor v3, turn-off variant 2) | 36.8 | 20.6 | 38.2 | – | – | – |
| UAUGGUAAAGUCAGGAUAUACGUGCAGAUUUCUAGGUAGAAGGGACAUGAGGAUCACCCAUGUAUGGUAGUGUU [Ex4 #45] (Eterna round: R97, puzzle: Brourd's mod of Exclusion 4) | 75.5 | – | 81.2 | – | – | – |
| UAUAUGUCAGGAUAUUAGUAGUAAAUGAAUAAAAUUAUUACUGAGAAGGGACAUGAGGAUCACCCAUGUGCUUC [Mat - Exclusion 4 - Eli Mod - D25] (Eterna round: R97, puzzle: Exclusion 4) | 224 | – | 27.9 | – | – | – |
| UAAACAAGCUAAAGAUCCUACAUGAGGAUCACCCAUGUGCUCGUCUUGUAACGUACUGUGACGAAAGUCACGGUACG [JL TOV1 3.10] (Eterna round: R97, puzzle: Sensor, turn-off variant 1) | 194 | – | 202 | – | – | – |
| CUUCGACAUGAGGAUCACCCAUGUCAGGAUAUUGUUUAUCUGGUUUUUUACAGAUAUACAAGAAGGGAUGUGUU [LRO-Excl1-02] (puzzle: Exclusion 1) | – | – | – | – | 25.9 | – |
